Measured values reported in publication PMC4158924.

Molecular target: K12-acetylated histone H4 tail peptide (residues 1–20), biotinylated at the C-terminus (UniProt P62805)
Experiment: SPR

“second bromodomain of human BRD2 (BRD2-BD2: residues 348–455) (from UniProt P25440 348-455) (domain or fragment)” gave a Kd of 300 µM.
